This data set is described as follows: Single-dose rat PK study of recombinant ANP-Fc fusions, i.v. or s.c. The note with it: 1 mg/kg, Sprague Dawley rats. In kind it is in vivo. As for the experimental part: The pharamacokinetics of the recombinant ANP-Fc fusion candidates were assessed by running a single-dose rat PK study. Single bolus injections of ANP-Fc fusions at 1 mg/kg dose were given to Sprague Dawley rats via i.v. or s.c. injection. Vehicle control PBS injections were given to a control group of animals. […] Animals were sampled for 1 week with a contingency group going up to 3 weeks. After sampling the animals were quarantined and the plasma samples with EDTA and Aprotinin are assayed in a sandwich ELISA where the ANP is captured with a monoclonal antibody and detected with an anti-human Fc antibody. The ELISA has a sensitivity of 1 ng/mL and may be used to detect ANP-Fc fusion proteins in rat plasma. This rat PK data permits the comparison of the in vivo half-life of the ANP-Fc fusion proteins to that of the native ligand, hANP28.

The text below walks through data of patent US20100310561A1, “NATRIURETIC FUSION PROTEINS” (BOEHRINGER INGELHEIM INTERNATIONAL GMBH, priority 2007, published 2010).

B1: ANPXY-L4-Fc2AB (protein)
chain: SLRRSSCFGGRMDRIGAQSGLGCNSFRYGGSGGSGGSGGCPPCPAPPVAGPSVFLFPPKPKDTLMISRTPEVTCVVVDVSHEDPEVQFNWYVDGVEVHNAKTKPREEQFNSTFRVVSVLTVVHQDWLNGKEYKCKVSNKGLPAPIEKTISKTKGQPREPQVYTLPPSREEMTKNQVSLTCLVKGFYPSDIAVEWESNGQPENNYKTTPPMLDSDGSFFLYSKLTVDKSRWQQGNVFSCSVMHEALHNHYTQKSLSLSPGK
modifications: Synthesized ANPxy-L4-Fc2ab (protein)
Turning to B1, for the setting “intravenous bolus”, the “half-life (T½)” value came to 16.8 h, the “mean resonance time (MRT)” value is 3.91 h and the “volume of distribution (Vss)” value came out at 0.61 L/kg. Further, where the note is “subcutaneous”, the “area under the curve (AUC)” value worked out at 2671 ng·h/mL, the “half-life (T½)” value worked out at 23.1 h, the “maximum serum concentration obtained (Cmax)” value came out at 53.5 ng/mL and the “percent bioavailability (% F)” value amounted to 20.6%.

B2: ANPXY-L6-Fc2AB (protein)
chain: SLRRSSCFGGRMDRIGAQSGLGCNSFRYGGSGGSGGSGGSGGSGGSGGCPPCPAPPVAGPSVFLFPPKPKDTLMISRTPEVTCVVVDVSHEDPEVQFNWYVDGVEVHNAKTKPREEQFNSTFRVVSVLTVVHQDWLNGKEYKCKVSNKGLPAPIEKTISKTKGQPREPQVYTLPPSREEMTKNQVSLTCLVKGFYPSDIAVEWESNGQPENNYKTTPPMLDSDGSFFLYSKLTVDKSRWQQGNVFSCSVMHEALHNHYTQKSLSLSPGK
modifications: Synthesized ANPxy-L6-Fc2ab
As to B2, for the setting “intravenous bolus”, the “half-life (T½)” value turned out to be 11.7 h, the “mean resonance time (MRT)” value came to 3.08 h and the “volume of distribution (Vss)” value stood at 0.76 L/kg. Moreover, where the note is “subcutaneous”, the “area under the curve (AUC)” value is 2202 ng·h/mL, the “half-life (T½)” value is 20.6 h, the “maximum serum concentration obtained (Cmax)” value stood at 44 ng/mL and the “percent bioavailability (% F)” value is 26.3%.
